Results reported in patent publication US20260209320A1 (ALCHEMAB THERAPEUTICS, published 2026).

B1: ATL_0005335 (antibody, V domains shown)
VH: EVQLVESGGGLVKPGGSLRLSCAASGFTFNKAWMNWVRQAPGKGLEWVGRIKSGIDGGTTDYAAPVQGRFTISRDDSKNTVYLQMNSLNTEDTAVYYCIPPPYYYYYGLDVWGQGTTVTVSS
VL: QSALTQPASVSGSPGQSITISCTGTSSDIGSYNLVSWYQQHPGNAPKPLIYEGSKRPSGVSARFSGSKSGNTASLTISGLQPEDEADYYCSSYAGFNTLVFGGGTKVTVL
notes: human IgG1; also called ATL_5335
B2: ATL_0005331 (antibody, V domains shown)
VH: B1 VH
VL: QSALTQPRSVSGSPGQSITISCTGTSSDVGSYNLVSWFQQHPGKAPKLIIYEVNKRPSGVPDRFSGSKSGNTASLTVSGLQAEDEADYYCGSYAGTNNVFGTGTKLTVL
notes: human IgG1; also called ATL_5331; Human IgG1 ATL_0005331

What was measured:
Peptide 15 [1] = target: T1, Peptide 15 (human, cyno); test: peptide microarray; Sp H; IgG 10 µg/ml
T1 peptide: QPQPPPPPPPPPPGP

Peptide 6 [2] = target: T2, Peptide 6 (human); test: peptide microarray; Sp H; IgG 10 µg/ml
T2 peptide: QQPPPPPPPPPPPQL

Peptide 14 [3] = target: T3, Peptide 14 (human, cyno); test: peptide microarray; Sp H; IgG 10 µg/ml
T3 peptide: PQPQPPPPPPPPPPG

Peptide 15 [4] = target: T1, Peptide 15; test: peptide microarray; Sp C2; IgG 10 µg/ml
Peptide 14 [5] = target: T3, Peptide 14; test: peptide microarray; Sp C2; IgG 10 µg/ml
Peptide 20 [6] = target: T4, Peptide 20 (cyno); test: peptide microarray; Sp C1; IgG 1 µg/ml
T4 peptide: QAQPMLPQPQPPPPP

Peptide 4 [7] = target: T5, Peptide 4 (human, cyno); test: peptide microarray; Sp H; IgG 1 µg/ml
T5 peptide: QQQQQPPPPPPPPPP

Epitope 1 = target: T6, Epitope 1 (human, cyno); test: peptide microarray; Sp H; IgG 1 µg/ml
T6 peptide: QQQQPPPPPPPPPPP

Peptide 11 = target: T7, Peptide 11 (human); test: peptide microarray; Sp H; IgG 1 µg/ml
T7 peptide: PLLPQPQPPPPPPPP

Peptide 9 = target: T8, Peptide 9 (human); test: peptide microarray; Sp H; IgG 1 µg/ml
T8 peptide: AQPLLPQPQPPPPPP

Peptide 7 = target: T9, Peptide 7 (human); test: peptide microarray; Sp H; IgG 1 µg/ml
T9 peptide: PQAQPLLPQPQPPPP

Peptide 10 = target: T10, Peptide 10 (human); test: peptide microarray; Sp H; IgG 1 µg/ml
T10 peptide: QPLLPQPQPPPPPPP

Peptide 15 [8] = target: T1, Peptide 15; test: peptide microarray; Sp H; IgG 1 µg/ml
Peptide 6 [9] = target: T2, Peptide 6; test: peptide microarray; Sp H; IgG 1 µg/ml
Peptide 12 = target: T11, Peptide 12 (human); test: peptide microarray; Sp H; IgG 1 µg/ml
T11 peptide: LLPQPQPPPPPPPPP

Peptide 1 = target: T12, Peptide 1 (human, cyno); test: peptide microarray; Sp H; IgG 1 µg/ml
T12 peptide: QQQQQQQQPPPPPPP

Peptide 8 = target: T13, Peptide 8 (human); test: peptide microarray; Sp H; IgG 1 µg/ml
T13 peptide: QAQPLLPQPQPPPPP

Peptide 13 = target: T14, Peptide 13 (human); test: peptide microarray; Sp H; IgG 1 µg/ml
T14 peptide: LPQPQPPPPPPPPPP

Peptide 16 = target: T15, Peptide 16 (human); test: peptide microarray; Sp H; IgG 1 µg/ml
T15 peptide: PQPPPPPPPPPPGPA

Peptide 3 = target: T16, Peptide 3 (human, cyno); test: peptide microarray; Sp H; IgG 1 µg/ml
T16 peptide: QQQQQQPPPPPPPPP

Peptide 14 [10] = target: T3, Peptide 14; test: peptide microarray; Sp H; IgG 1 µg/ml
Peptide 17 = target: T17, Peptide 17 (human); test: peptide microarray; Sp H; IgG 1 µg/ml
T17 peptide: QPPPPPPPPPPGPAV

Peptide 2 [11] = target: T18, Peptide 2 (human, cyno); test: peptide microarray; Sp H; IgG 1 µg/ml
T18 peptide: QQQQQQQPPPPPPPP

Peptide 4 [12] = target: T5, Peptide 4; test: peptide microarray; Sp C1; IgG 10 µg/ml
Peptide 22 = target: T19, Peptide 22 (cyno); test: peptide microarray; Sp C1; IgG 10 µg/ml
T19 peptide: QPMLPQPQPPPPPPR

Peptide 20 [13] = target: T4, Peptide 20; test: peptide microarray; Sp C1; IgG 10 µg/ml
Peptide 2 [14] = target: T18, Peptide 2; test: peptide microarray; Sp C1; IgG 10 µg/ml
Peptide 15 [15] = target: T1, Peptide 15; test: peptide microarray; Sp C2; IgG 1 µg/ml
Peptide 14 [16] = target: T3, Peptide 14; test: peptide microarray; Sp C2; IgG 1 µg/ml
Peptide 23 [17] = target: T20, Peptide 23 (cyno); test: peptide microarray; Sp C2; IgG 10 µg/ml
T20 peptide: QQQQQQQQQQPPPPP

Peptide 41 [18] = target: T21, Peptide 41 (mouse); test: peptide microarray; Sp M; IgG 1 µg/ml
T21 peptide: PPQPPPQGQPPPPPP

Peptide 23 [19] = target: T20, Peptide 23; test: peptide microarray; Sp C2; IgG 1 µg/ml
Peptide 41 [20] = target: T21, Peptide 41; test: peptide microarray; Sp M; IgG 10 µg/ml

Binder	corrected fluorescence intensity (Peptide 4 [7])	corrected fluorescence intensity (Epitope 1)	corrected fluorescence intensity (Peptide 11)	corrected fluorescence intensity (Peptide 9)	corrected fluorescence intensity (Peptide 7)	corrected fluorescence intensity (Peptide 10)	corrected fluorescence intensity (Peptide 12)	corrected fluorescence intensity (Peptide 1)	corrected fluorescence intensity (Peptide 8)	corrected fluorescence intensity (Peptide 13)	corrected fluorescence intensity (Peptide 16)	corrected fluorescence intensity (Peptide 3)	corrected fluorescence intensity (Peptide 17)	corrected fluorescence intensity (Peptide 2 [11])	corrected fluorescence intensity (Peptide 4 [12])	corrected fluorescence intensity (Peptide 22)	corrected fluorescence intensity (Peptide 2 [14])	other results
B1	409	293	936	622	0	845	932	0	434	1130	77.5	626	0	417	4320	374	2230	corrected fluorescence intensity (Peptide 15 [1]): 1130; corrected fluorescence intensity (Peptide 6 [2]): 176; corrected fluorescence intensity (Peptide 14 [3]): 1630; corrected fluorescence intensity (Peptide 15 [4]): 0; corrected fluorescence intensity (Peptide 14 [5]): 0; corrected fluorescence intensity (Peptide 20 [6]): 187; corrected fluorescence intensity (Peptide 15 [8]): 234; corrected fluorescence intensity (Peptide 6 [9]): 0; corrected fluorescence intensity (Peptide 14 [10]): 335; corrected fluorescence intensity (Peptide 20 [13]): 1190; corrected fluorescence intensity (Peptide 15 [15]): 0; corrected fluorescence intensity (Peptide 14 [16]): 0
B2	238	291	280	229	0	274	374	131	260	373	90.2	276	85.5	197	3150	112	1760	corrected fluorescence intensity (Peptide 23 [17]): 148; corrected fluorescence intensity (Peptide 41 [18]): 55; corrected fluorescence intensity (Peptide 23 [19]): 0; corrected fluorescence intensity (Peptide 41 [20]): 197
